Biological target: EDB (+)-fibronectin in murine tumor sections (Mus musculus, UniProt P11276)
Assay: immunostaining of cells or tissue

Chain of EDB (+)-fibronectin in murine tumor sections (P11276 33-2477): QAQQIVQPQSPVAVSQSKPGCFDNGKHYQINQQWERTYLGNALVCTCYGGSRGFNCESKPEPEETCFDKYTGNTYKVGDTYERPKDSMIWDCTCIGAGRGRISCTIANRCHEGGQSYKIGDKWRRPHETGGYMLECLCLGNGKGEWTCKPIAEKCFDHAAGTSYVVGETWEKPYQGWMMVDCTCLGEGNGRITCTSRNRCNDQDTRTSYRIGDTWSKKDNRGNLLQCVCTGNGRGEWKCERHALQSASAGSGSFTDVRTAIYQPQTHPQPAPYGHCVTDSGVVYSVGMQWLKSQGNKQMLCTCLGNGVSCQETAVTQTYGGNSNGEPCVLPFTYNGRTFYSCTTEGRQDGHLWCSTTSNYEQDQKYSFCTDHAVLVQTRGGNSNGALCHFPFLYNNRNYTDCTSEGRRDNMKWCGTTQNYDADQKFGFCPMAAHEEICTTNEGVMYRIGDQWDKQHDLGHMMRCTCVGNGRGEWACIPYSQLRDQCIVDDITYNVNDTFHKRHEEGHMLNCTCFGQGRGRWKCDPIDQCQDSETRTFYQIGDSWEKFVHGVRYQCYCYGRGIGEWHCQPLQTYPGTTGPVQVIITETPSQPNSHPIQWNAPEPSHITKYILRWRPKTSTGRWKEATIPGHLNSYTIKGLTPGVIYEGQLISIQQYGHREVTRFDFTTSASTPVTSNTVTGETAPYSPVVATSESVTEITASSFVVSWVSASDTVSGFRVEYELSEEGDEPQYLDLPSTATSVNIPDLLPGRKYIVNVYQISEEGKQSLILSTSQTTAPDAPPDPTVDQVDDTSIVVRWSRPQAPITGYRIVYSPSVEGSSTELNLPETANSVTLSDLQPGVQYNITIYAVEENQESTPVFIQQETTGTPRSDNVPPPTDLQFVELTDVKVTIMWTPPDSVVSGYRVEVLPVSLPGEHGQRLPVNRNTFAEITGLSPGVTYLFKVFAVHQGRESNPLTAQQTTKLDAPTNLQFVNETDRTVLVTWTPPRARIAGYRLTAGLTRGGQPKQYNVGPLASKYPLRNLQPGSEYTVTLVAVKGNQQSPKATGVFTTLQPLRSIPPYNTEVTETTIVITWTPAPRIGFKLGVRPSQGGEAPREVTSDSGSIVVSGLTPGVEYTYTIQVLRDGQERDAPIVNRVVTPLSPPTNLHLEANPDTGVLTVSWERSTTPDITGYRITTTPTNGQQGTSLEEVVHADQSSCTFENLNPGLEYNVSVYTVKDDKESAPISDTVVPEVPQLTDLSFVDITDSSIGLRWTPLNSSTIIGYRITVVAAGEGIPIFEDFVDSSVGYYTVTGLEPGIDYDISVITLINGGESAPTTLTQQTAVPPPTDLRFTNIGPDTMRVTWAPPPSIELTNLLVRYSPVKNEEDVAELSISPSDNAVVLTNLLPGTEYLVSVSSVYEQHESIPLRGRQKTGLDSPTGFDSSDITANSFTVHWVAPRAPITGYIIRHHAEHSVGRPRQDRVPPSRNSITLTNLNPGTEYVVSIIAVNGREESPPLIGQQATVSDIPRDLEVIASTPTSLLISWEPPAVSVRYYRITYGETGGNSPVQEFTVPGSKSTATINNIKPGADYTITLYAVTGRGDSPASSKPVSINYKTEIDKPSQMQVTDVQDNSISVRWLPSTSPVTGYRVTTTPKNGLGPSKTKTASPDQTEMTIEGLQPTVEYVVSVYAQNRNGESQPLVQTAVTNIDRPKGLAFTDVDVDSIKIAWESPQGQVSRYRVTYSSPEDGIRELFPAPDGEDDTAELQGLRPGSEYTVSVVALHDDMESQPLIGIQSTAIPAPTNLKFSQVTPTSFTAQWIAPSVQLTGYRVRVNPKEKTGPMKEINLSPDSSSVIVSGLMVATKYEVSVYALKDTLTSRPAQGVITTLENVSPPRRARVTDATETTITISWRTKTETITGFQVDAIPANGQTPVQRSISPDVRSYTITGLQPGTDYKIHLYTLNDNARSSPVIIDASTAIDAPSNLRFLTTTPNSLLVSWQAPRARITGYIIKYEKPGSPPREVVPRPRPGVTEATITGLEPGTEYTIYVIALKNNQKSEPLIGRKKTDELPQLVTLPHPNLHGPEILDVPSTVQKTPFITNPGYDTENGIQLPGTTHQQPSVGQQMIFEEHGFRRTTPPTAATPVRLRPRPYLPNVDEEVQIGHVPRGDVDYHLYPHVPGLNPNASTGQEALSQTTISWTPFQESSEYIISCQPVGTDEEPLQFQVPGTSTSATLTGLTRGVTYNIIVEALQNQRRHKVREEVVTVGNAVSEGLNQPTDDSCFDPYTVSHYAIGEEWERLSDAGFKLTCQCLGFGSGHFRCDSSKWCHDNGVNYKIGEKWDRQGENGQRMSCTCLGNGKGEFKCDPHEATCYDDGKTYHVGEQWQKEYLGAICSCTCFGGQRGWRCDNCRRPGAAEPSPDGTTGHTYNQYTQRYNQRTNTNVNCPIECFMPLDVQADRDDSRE

- binding result: binds
B1: FITC-labeled L19 IgG1 (antibody, V domains shown)
VH: EVQLLESGGGLVQPGGSLRLSCAASGFTFSSFSMSWVRQAPGKGLEWVSSISGSSGTTYYADSVKGRFTISRDNSKNTLYLQMNSLRAEDTAVYYCAKPFPYFDYWGQGTLVTVSS
VL: EIVLTQSPGTLSLSPGERATLSCRASQSVSSSFLAWYQQKPGQAPRLLIYYASSRATGIPDRFSGSGSGTDFTLTISRLEPEDFAVYYCQQTGRIPPTFGQGTKVEIK

— paper doi:10.1101/684100 (bioRxiv, 2019)
